Source: paper PMC6585436 (Chemistry & biology, 2015)
Several values for one entry are separate records, joined by “and”; a condition that tells them apart may be missing. Identical values can stand only once. Like-named read-outs stand apart in the source and are kept apart here.

Key:
Experiment in all cases: native MS
[1] = biological target: AfMscL C-GFP (pet15b-AfMscL-TEV-GFP-6xHis) (Acidithiobacillus ferrooxidans)
[2] = biological target: N-His MtMscL (pet15b-10xHis-Thrombin-MtMscL-PG) (Mycobacterium tuberculosis) (UniProt A5U127)
[3] = biological target: N-His MtMscL (pet15b-10xHis-Thrombin-MtMscL-PG) (Mycobacterium tuberculosis) (UniProt A5U127); remark: listed apart in the source
native MS [4] = biological target: the molecule itself
native MS [5] = biological target: the molecule itself; remark: listed apart in the source
native MS [6] = biological target: the molecule itself; remark: listed apart in the source
native MS [7] = biological target: the molecule itself; remark: listed apart in the source
native MS [8] = biological target: the molecule itself; remark: listed apart in the source

AfMscL C-GFP (pet15b-AfMscL-TEV-GFP-6xHis) (natural protein)
stoichiometry N [1]: 5

N-His MtMscL (pet15b-10xHis-Thrombin-MtMscL-PG) (from UniProt A5U127 1-151) (natural protein)
relative abundance of pentamer [2]: 38% | relative abundance of tetramer [2]: 63% | stoichiometry N [2]: 4 | stoichiometry N [3]: 5

B1: SaMscL CΔ25 C-GFP (pet15b-SaMscL CΔ(96–120)-S-TEV-GFP-6xHis) (domain or fragment)
chain: MLKEFKEFALKGNVLDLAIAVVMGAAFNKIISSLVENIIMPLIGKIFGSVDFAKEWSFWGIKYGLFIQSVIDFIIIAFALFIFVKIANTLMKKEE
stoichiometry N (native MS [4]): 5 | stoichiometry N (native MS [5]): 4

B2: SaMscL C-GFP (pet15b-SaMscL-S-TEV-GFP-6xHis) (natural protein, Staphylococcus aureus, UniProt P68805 1-120, looked up)
chain: MLKEFKEFALKGNVLDLAIAVVMGAAFNKIISSLVENIIMPLIGKIFGSVDFAKEWSFWGIKYGLFIQSVIDFIIIAFALFIFVKIANTLMKKEEAEEEAVVEENVVLLTEIRDLLREKK
stoichiometry N (native MS [6]): 4 | stoichiometry N (native MS [7]): 5

B3: N-His SaMscL (pet15b-10xHis-Thrombin-SaMscL) (natural protein, Staphylococcus aureus, UniProt P68805 1-120, looked up)
chain: B2 chain
stoichiometry N (native MS [7]): 4 and 3 and 2 | stoichiometry N (native MS [5]): 5

B4: Full-length SaMscL, cleaved of its C-terminal GFP tag (natural protein, Staphylococcus aureus, UniProt P68805 1-120, looked up)
chain: B2 chain
stoichiometry N (native MS [8]): 5 and 4
